This note sets out measurements from article PMC6694677.

In assay [1] the target is HER2 on SK-BR-3 cells (human (endogenous in SK-BR-3)) (UniProt P04626). As to the kind of experiment: flow cytometry on cells; SK-BR-3 or Jurkat cells with serially diluted antibody, 1 h at room temperature; PE-conjugated anti-human IgG Fc as secondary antibody. (In flow cytometry, cells or beads pass a laser one at a time.)
Assay [2] addresses recombinant CD3 antigen (ectodomain of hCD3) (human) (UniProt P07766). As to the kind of experiment: SPR; ProteOn XPR36; HER2 and CD3 antigens amine-coupled on a GLC chip at 1000 RU; M802 (0 to 50 nM) and other antibodies injected; 1:1 L interaction model for HER2, two state interaction model for CD3. A general note: Surface plasmon resonance follows binding to a sensor surface in real time, without labels.

In assay [3] the target is recombinant HER2 antigen (ectodomain of hHER2) (Homo sapiens) (UniProt P04626). The assay is described as above.
The target of assay [4] is CD3 on Jurkat cells (human (endogenous in Jurkat)) (UniProt P07766). Nature of the assay: FACS. The note with it: bispecific antibody.
In assay [5] the target is HER2 on SK-BR-3 cells (human (endogenous in SK-BR-3)) (UniProt P04626). As to the kind of experiment: FACS. The note with it: bispecific antibody.
The target in assay [6] is recombinant HER2 antigen (ectodomain of hHER2) (Homo sapiens) (UniProt P04626). As to the kind of experiment: SPR; ProteOn XPR36, GLC chip; HER2 antigen immobilised by amine coupling at 1000 RU; antibodies (M802 0 to 50 nM) injected; 1:1 L interaction model; KD = Kd/Ka.
The target of assay [7] is recombinant CD3 antigen (ectodomain of hCD3) (human) (UniProt P07766). As to the kind of experiment: SPR; ProteOn XPR36, GLC chip; CD3 antigen immobilised by amine coupling at 1000 RU; antibodies (M802 0 to 50 nM) injected; Two state interaction model; KD = Kd/Ka.

pKd: −log10 of the molar value.

recombinant CD3 antigen (ectodomain of hCD3) (human), sequence (P07766 23-126): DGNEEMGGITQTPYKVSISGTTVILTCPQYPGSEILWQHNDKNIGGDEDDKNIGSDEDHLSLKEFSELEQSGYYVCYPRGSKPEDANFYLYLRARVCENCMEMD
CD3 on Jurkat cells (human (endogenous in Jurkat)), sequence (P07766 23-207, chain 1 of 3): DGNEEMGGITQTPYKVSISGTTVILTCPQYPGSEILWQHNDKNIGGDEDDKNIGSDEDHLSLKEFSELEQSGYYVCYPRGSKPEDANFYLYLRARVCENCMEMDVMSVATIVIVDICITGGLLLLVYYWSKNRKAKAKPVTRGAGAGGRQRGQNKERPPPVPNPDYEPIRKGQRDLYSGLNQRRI
CD3 on Jurkat cells (human (endogenous in Jurkat)), sequence (P04234 22-171, chain 2 of 3, further chain): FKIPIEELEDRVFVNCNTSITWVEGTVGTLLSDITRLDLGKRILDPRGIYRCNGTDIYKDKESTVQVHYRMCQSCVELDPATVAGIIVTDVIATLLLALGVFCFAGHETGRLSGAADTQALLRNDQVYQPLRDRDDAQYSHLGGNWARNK
CD3 on Jurkat cells (human (endogenous in Jurkat)), sequence (P09693 23-182, chain 3 of 3, further chain): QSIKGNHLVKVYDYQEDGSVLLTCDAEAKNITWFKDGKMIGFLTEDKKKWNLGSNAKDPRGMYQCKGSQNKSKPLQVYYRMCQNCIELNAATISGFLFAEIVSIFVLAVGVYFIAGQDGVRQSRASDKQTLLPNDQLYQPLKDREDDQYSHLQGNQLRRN

By pKd is commonly meant −log10 of the Kd, conventionally taken in molar units. “M802, anti-HER2/CD3 bispecific antibody (MSBODY format: monovalent unit against HER2 and single chain unit against CD3)”: in assay [1], the fold weaker affinity than Herceptin was determined as 3 fold. The pKd in assay [2] was 7.15; in assay [3], 9.24.
In the case of “M802, anti-HER2/CD3 bispecific antibody (MSBODY format: monovalent unit against HER2 and single chain unit against CD3) (from UniProt P01857)”, the pKd was 6.73 in assay [4] and 7.93 in assay [5].
One may read the koff as a measure of how fast the partners let go of each other. As usually defined, the kon is the rate constant with which the complex forms. Turning to “M802, anti-HER2/CD3 bispecific antibody (monovalent unit against HER2 and single chain unit against CD3)”, the koff in assay [6] came out at 0.000248 s⁻¹; in assay [7], 0.0245 s⁻¹. Besides, the kon in assay [6] turned out to be 429000 M⁻¹ s⁻¹; in assay [7], 345000 M⁻¹ s⁻¹.
